Reference: patent publication US8415106B2, “Cell-based screen for agents useful for reducing neuronal demyelination or promoting neuronal remyelination” (Myelin Repair Foundation, Inc., priority 2005, dated 2013)

Experiments:
[1] = system: oligodendrocytes and myelin in the corpus callosum; test: Cuprizone-induced demyelination/remyelination in GFAP/tTA; TRE/IFN-γ double transgenic mice; type: in vivo
Method: The effects of IFN-γ on demyelination were evaluated in a cuprizone animal model using transgenic mice that allow for temporally regulated delivery of IFN-γ using the tetracycline controllable system (Lin, et al. (2004) J. Neurosci. 24: 10074-10083). The transgenic mice were generated by mating line 110 GFAP/tTA mice on the C57BL/6 background with line 184 TRE/IFN-γ on the C57BL/6 background to produce GFAP/tTA; TRE/IFN-γ double transgenic mice (Lin, et al. (2004) J. Neurosci. 24: 10074-10083). Transcriptional activation of the TRE/IFN-γ transgene by tTA was repressed in the control (DOX+) mice by adding 0.05 mg/ml doxycycline to the drinking water which was provided ad libitum from the day of conception. The DOX+ double transgenic mice were GFAP/tTA; TRE/IFN-γdouble transgenic animals fed cuprizone chow and never released from the doxycycline solution. DOX− double transgenic mice were GFAP/tTA; TRE/IFN-γdouble transgenic animals fed cuprizone chow and released from doxycycline to induce expression of IFN-γ.
Demyelination was induced in 6-week-old DOX+ and DOX− male mice by feeding the mice a diet of milled mouse chow containing 0.2% cuprizone (Sigma-Aldrich, St. Louis, Mo.) for up to 6 weeks. Subsequently, both groups of mice were returned to a normal diet for up to 3 weeks to allow remyelination to occur. All animal procedures were conducted in complete compliance with the NIH Guide for the Care and Use of Laboratory Animals and were approved by the Institutional Animal Care and Use Committee of The University of Chicago.
The effect of INF-γ on the population of oligodendrocytes was evaluated by immunohistochemical analysis of oligodendrocytes using an anti-CC1 antibody (APC7, 1:50; EMD Biosciences, Inc., La Jolla, Calif.) Immunohistochemistry was performed on brain sections obtained from mice that were first anesthetized mice and perfused through the left cardiac ventricle with 4% paraformaldehyde in 0.1M PBS. The brains were removed, postfixed with paraformaldehyde, cryopreserved in 30% sucrose, embedded in OCT and frozen on dry ice. Frozen sections were cut in a cryostat at a thickness of 10 μm. […] Fluorescent stained sections were mounted with Vectashield mounting medium with DAPI (Vector Laboratories) and visualized with a Zeiss Axioplan fluorescence microscope. […] Immunopositive cells were quantified by counting positive cells within the median of the corpus callosum, confined to an area of 0.04 mm^2. Only those cells with nuclei observable by DAPI staining were counted. Each MBP immunostaining slide was scored on a scale of zero to four. […]

Stat1 = Stat1 nuclear translocation assay in mixed primary oligodendrocyte cultures; type: cell-based, mice; conditions: 100 U/mL IFN-γ for 30 min, one hundred PLP positive cells counted
Method: Mixed primary oligodendrocyte cultures were prepared as previously described (Baerwald et al., 2000). Briefly, brain tissue was harvested from 2-3-day-old newborn pups of PLP/SOCS1 and C57B1/6J matings. Because the litters contained transgenic and wild-type pups, the brain of each animal was processed individually, cultured separately, and later genotype matched. Each brain was digested separately using 0.25% trypsin and 10 μg/ml of DNAaseI (Invitrogen) in Dulbecco's modified Eagle's medium (DMEM) for 20 min at 37° C., and cells were cultured on separate poly-D-lysine-coated […] flasks (Sigma-Aldrich). The cultures were maintained with 10% fetal bovine serum DMEM at 37° C. with 5% CO2 for 12 days, and then switched to a defined medium containing […] of insulin, 50 μg/ml of transferrin, 30 nM of selenium, 10 nM of biotin, 1 nM of progesterone, 15 nM of T3, 0.1% bovine serum albumin, and 1% […] (Sigma-Aldrich). […] One hundred PLP positive cells were manually counted in both wild-type and PLP/SOCS1 cultures. […]
The responsiveness of PLP/SOCS1 oligodendrocytes to IFN-γ was studied in primary mixed glial cultures. […] In contrast, Stat1 nuclear translocation was detected only in occasional PLP positive oligodendrocytes (6±2 cells) following IFN-γ stimulation (p<0.05).

B1: IFN-γ: pleotropic cytokine secreted by activated T lymphocytes and natural killer cells; recombinant rat IFN-γ added to cultures or transgenically expressed in mouse CNS (protein, UniProt P01581 23-156, looked up)
Interferon gamma: QGTLIESLESLKNYFNSSSMDAMEGKSLLLDIWRNWQKDGNTKILESQIISFYLRLFEVLKDNQAISNNISVIESHLITNFFSNSKAKKDAFMSIAKFEVNNPQIQHKAVNELIRVIHQLSPESSLRKRKRSRC
Q: B1 was tested. Which remyelinated axons ([1]; DOX− mice (IFN-γ expressed), corpus callosum, week 8, control DOX+ 48.4%±4%) did it give?
A: 26.9%±7%

Q: And the “CC1 positive oligodendrocytes within the corpus callosum” value ([1]; DOX− mice, 8 weeks, control DOX+ 228.7±20.2)?
A: 78±12.7 /0.04 mm2

Q: And the “NG2 positive OPCs in the corpus callosum” value ([1]; DOX− mice, week 4 of cuprizone treatment, DOX+ 19±2.12)?
A: 46±4.24 /0.04 mm^2

Q: And the “NG2 positive OPCs in the corpus callosum” value ([1]; DOX− mice, week 6, DOX+ 80±2.8)?
A: 31.5±0.71 /0.04 mm^2

Q: And the “PLP positive oligodendrocytes with Stat1 nuclear translocation” value (Stat1; PLP/SOCS1 cultures)?
A: 6±2 cells

Q: And the “PLP positive oligodendrocytes with Stat1 nuclear translocation” value (Stat1; wild-type cultures)?
A: 96±3 cells
